B1: Peroxisome proliferator-activated receptor delta, residues 71 to 145; numbered along this chain, Q03181 (parent)
chain: NMECRVCGDKASGFHYGVHACEGCKGFFRRTIRMKLEYEKCERSCKIQKKNRNKCQYCRFQKCLALGMSHNAIRF

Variants of: B1
Experiment: abundance fitness (aPCA) (normalised: wild type 0, dead -1); higher = more abundant; growth selection in yeast, the domain comes from the species named
Conditions: Homo sapiens

Abundance fitness: each site, then its substitutions
A11: T -0.147, W -0.706, S -0.091, Y -0.31, V -0.306
G23: M 0.009, E 0.17, T -0.203, W 0.084, F -0.001, V -0.325, S 0.146, H 0.26, D 0.192, N 0.109, C 0.071, Q -0.009, Y 0.021, R -0.179, I -0.244, K -0.034, L -0.061
H19: G -0.205, E 0.136, S 0.046, D 0.205, F 0.247, N 0.063, K -0.047, I 0.009, Y 0.038, M 0.122, V -0.083, P -0.028, R -0.049, T 0.041, C 0.014, Q 0.131, A 0.11, W -0.001
C24: R -0.823, I -0.464, Q -0.912, N -0.648, M -0.648, A -0.626, L -0.753, Y -0.747, F -0.364, S -0.809, E -0.924, D -0.306, H -0.15, K -0.6, T -0.723, V -1.06
Y16: S -0.132, K -0.356, M -0.171, T -0.32, G -0.013, R -0.533, V -0.281, A -0.065, D 0.126, L -0.269, F -0.085, N -0.032, Q -0.034, W -0.27, H -0.13, E -0.023
V18: C -0.145, Q -0.39, L -0.258, D -0.396, S -0.505, N -0.372, H -0.764, P -0.492, R -0.671, I -0.051, A -0.104, F -0.527, Y -0.652, W -0.721, E -0.398
T31: D -0.663, E -0.89, M -0.521, G -0.717, K -0.917, F -0.406, C -0.726, N -0.967, L -0.985, I -0.49, A -0.288
F14: M -0.059, P -0.14, R -0.138, D 0.014, K 0.006, I 0.002, E 0.066, Y 0.038, A -0.028, T 0.066, N -0.066, L 0.085, Q -0.064, C -0.076, G -0.299, W -0.118, V 0.018, H -0.098
F28: W -0.203, Y -0.159, E -0.667, M -0.156, A -0.603, D -0.845, I -1.23, V -0.538, R -0.823, H -0.936, L -0.842, K -0.758, P -0.406, T -0.909, Q -0.808, S -0.625, N -0.586, C -0.882
E22: A -0.256, I -0.176, T -0.282, D -0.148, M -0.205, V -0.325, F -0.343, L -0.508, P -0.294, W -0.425, N -0.207, S -0.405, R -0.293, C -0.258, Y -0.389, G -0.341, Q -0.332, K -0.297, H -0.385
F27: K -0.772, M -1.02, V -0.951, C -0.719, W -0.787, A -0.934, I -0.994, G -0.789, L -0.784, P -0.876, E -0.85, Y -1.06, R -0.684, D -0.41, Q -0.958
R29: D 0.131, E 0.258, F 0.142, K 0.026, T 0.197, A 0.191, V 0.105, G 0.09, W 0.164, Y -0.089, C -0.009, Q 0.168, P -0.901, L 0.139, I 0.132, N 0.085
K25: T 0.094, P -0.878, R -0.003, G 0.178, L 0.112, D -0.048, E 0.142, V 0.109, W 0.01, F -0.108, Q -0.036, S 0.105, I 0.061, C -0.014, Y 0.114, A 0.122, H -0.19, M 0.188
S12: L -0.395, E -0.123, G -0.274, V -0.222, K -0.248, R -0.351, W -0.579, A -0.119, I -0.121, P -0.39, C -0.103, N -0.098, F -0.115, Y -0.138, H -0.238, T -0.06, Q -0.115
A20: H -0.594, K -0.771, Q -0.874, M -0.456, V -0.077, E -0.886, G -0.847, F 0.145, T -0.057, C 0.139, I -0.023, S -0.168, W -0.534, N -0.222, L -0.106, D -0.99, P -0.792, R -0.707
G17: K -0.861, P -0.527, Q -0.248, D -0.15, N -0.238, V -0.647, F -0.661, I -0.813, M -0.158, H -0.682, S -0.448, W -0.918, R -0.777, L -0.692, E -0.27, A -0.465, T -0.567
G26: R -0.099, N 0.055, D 0.114, T 0.039, E 0.127, A 0.068, H 0.221, F -0.125, W -0.174, V -0.004, C -0.139, M -0.09, P -1.02, I 0.025, Y 0.084
H15: S -0.117, V -0.238, Y -0.088, P -0.242, G -0.285, R -0.595, Q -0.188, I -0.154, M -0.125, K -0.61, F -0.006, A -0.116, E -0.025, D -0.027, C -0.044, N -0.341, T -0.174
C21: M -0.912, A -0.705, E -0.847, H -0.714, Q -0.763, Y -0.599, S -0.867, G -0.633, P -1.14, I -0.608, W -0.881, D -0.875, K -0.597, L -0.942, T -0.83, R -0.865
R30: Y -0.056, I -0.31, D 0.026, M -0.176, N 0.021, T -0.07, C -0.275, H -0.067, K -0.07, V -0.188, S -0.088, P -1.05, A -0.359, G -0.335, E 0.074
G13: S -0.212, A -0.239, W -0.708, E -0.274, N -0.01, I -0.324, Q -0.322, M -0.431, R -0.427, L -0.48, F -0.838, H -0.545, Y -0.385, V -0.353, P -0.363, D -0.103, C -0.596

— the Human Domainome abundance scans (Beltran et al. 2025)
